Experimental data taken from publication PMC9130890 (Advanced Science, 2022).

Experiments:
[1] = target: HIV-1 C1080 Env trimer, stabilized in the prefusion-closed state (HIV-1 (CRF01_AE strain C1080))
[2] = target: HIV-1 BG505 Env trimer (HIV-1 (strain BG505), UniProt Q2N0S6)

B1: J038 (antibody, V domains shown)
VH: QLHLQESGPGLVRPSETLSLTCDVSGGAFNDAYCSWIRRFPGGGLEWIGRISGRDGYVESNPALTGRVTMSIDATWKKIVLRLTSMTASDTATYFCAGETPEDDFGYYQPYFKTWGQGLGVTVSS
VL: DIQLIQSPSSVSASLGDRVTITCRSTQGIGSDLAWYQATPGTAPKLLIYNSFALHKGVPSRFSGSGSGTEFSLTITGLQPEDFATYYCQHYRRLPLTFGGGTNIEVK
binding result [1]: binds
binding result [2]: binds
